{"source": "patent US20190002511A1", "binders": {"B1": {"name": "ultravariegin (peptide)", "peptide": "SDEAVRAIPKMYSTAPPGDFEEIPDDAIEE", "modifications": "not checked"}}, "key": {"[1]": {"molecular_target": "human α-thrombin (recombinant) (human), P00734", "test": "thrombin amidolytic assay with S2238; column headed Affinity (nM)"}, "[2]": {"molecular_target": "human α-thrombin (recombinant) (human), P00734", "test": "cell-based or functional assay"}, "[3]": {"molecular_target": "human α-thrombin (recombinant) (human), P00734", "test": "assay not named; the printed µM is most likely a misprint of pM (compare Table 5 and paragraph 9)"}, "[4]": {"molecular_target": "human α-thrombin (recombinant) (human), P00734", "test": "cell-based or functional assay", "remark": "listed apart in the source"}, "[5]": {"molecular_target": "human α-thrombin (recombinant) (human), P00734", "test": "thrombin amidolytic assay with S2238, Morrison tight-binding fit"}, "[6]": {"molecular_target": "human α-thrombin (recombinant) (human), P00734", "test": "comparison of Ki values"}}, "note": "Like-named read-outs stand apart in the source and are kept apart here.", "data": [{"binder": "B1", "values": [{"measurement": "Ki", "setting": "[1]", "value": 0.001, "unit": "nM"}, {"measurement": "IC50, inhibition of thrombin amidolytic activity", "setting": "[2]", "value": 0.26, "unit": "nM"}, {"measurement": "Ki", "setting": "[3]", "value": 1500, "unit": "nM"}, {"measurement": "IC50, inhibition of thrombin amidolytic activity", "setting": "[4]", "value": 0.4, "unit": "nM"}, {"measurement": "Ki", "setting": "[5]", "value": 0.0044, "unit": "nM"}, {"measurement": "fold more potent than variegin (Ki)", "setting": "[6]", "value": "> 70", "unit": "fold"}, {"measurement": "fold stronger affinity than avathrin and variegin", "setting": "[6]", "value": "> 200", "unit": "fold"}]}]}
